Measurements taken from patent publication US20210115121A1 (UCB, published 2021).
“And” between values parts separate entries of the source, which are not always exact repeats. Equal values may be shown once. One block for each binder: values may come before it.

Assays:
[1] = target: T1, Tau from human Alzheimer's disease brain (isolated Tau PHF fibrils from Alzheimer's disease patients) (human, UniProt P10636-8 2-441, limits assumed); assay: cell-based or functional assay
[2] = target: T2, tau peptide 234-250, N-acetyl-KSPSSAKSRLQTAPVPM-amide (human); assay: X-ray crystallography of the Fab/peptide co-complex
T2 peptide: Ac-KSPSSAKSRLQTAPVPM-NH2
Text: We collected the x-ray diffraction data through a single L14H18 Fab/tau peptide 234-250 crystal. The crystal was suspended in a litho loop and flash frozen under liquid nitrogen, after briefly passing through a cryoprotectant solution containing 30% polyethylene glycol 4000, 0.2M calcium chloride, 0.1M HEPES buffer pH 7.5 and 10% ethylene glycol. The diffraction data was collected on a Pilatis 6M at the 104-1 beamline station at the Diamond synchrotron, Didcot, Oxfordshire, UK. The wavelength of the monochromatic x-ray beam was 0.92819A. The reciprocal space was sampled at 0.2° oscillation steps around the φ goniostat axis. The processed data XIA file provided from the synchrotron facility was used for structure determination
For model building the computer program Coot (Emsley P., Lohkamp B., Scott W. G., Cowton K. Acta Crystallography D Biol Crystallography, 2010 April; 66 (Pt 4): 486-501) was used. Refinement was carried out using the program REFMAC (Murshudov G. N., Skubak P., Lebedev A. A., Pannu N. S., Steiner R. A., Nicholls R. A., Winn M. D., Long F., Vagin A. A. Acta Crystallogr D Biol Crystallogr 2011 April; 67 (Pt 4): 355-67).
The interaction between antibody L14H18 and tau peptide, N-acetyl-[…]-amide (based on human tau isoform 2 sequence 234 to 250), was studied by x-ray crystallography using a co-complex prepared from L14H18 Fab fragment incubated with the peptide. […]

[3] = target: Tau from human progressive supranuclear palsy brain (human, UniProt P10636-8 2-441, limits assumed); assay: cell-based or functional assay
Sequence of Tau from human progressive supranuclear palsy brain (P10636 other isoform, or with tags, fused parts or gaps limits assumed): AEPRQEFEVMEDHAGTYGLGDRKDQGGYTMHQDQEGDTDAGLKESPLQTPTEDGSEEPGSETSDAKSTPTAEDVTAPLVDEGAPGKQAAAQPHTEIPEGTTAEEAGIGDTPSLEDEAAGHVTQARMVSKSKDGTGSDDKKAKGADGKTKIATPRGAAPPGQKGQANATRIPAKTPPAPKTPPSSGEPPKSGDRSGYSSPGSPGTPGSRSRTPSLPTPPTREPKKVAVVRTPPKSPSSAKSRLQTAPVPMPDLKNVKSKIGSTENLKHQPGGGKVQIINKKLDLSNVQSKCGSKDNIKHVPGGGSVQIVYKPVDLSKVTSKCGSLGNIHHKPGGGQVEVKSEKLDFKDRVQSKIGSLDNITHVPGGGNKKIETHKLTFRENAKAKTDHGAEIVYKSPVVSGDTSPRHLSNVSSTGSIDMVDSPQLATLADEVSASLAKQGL

[4] = target: Tau from human frontotemporal dementia brain (human, UniProt P10636-8 2-441, limits assumed); assay: cell-based or functional assay
[5] = target: human Tau P301L from brain of P301L Tau transgenic mice (human, UniProt P10636-8 2-441, limits assumed); assay: cell-based or functional assay
Sequence of human Tau P301L from brain of P301L Tau transgenic mice (P10636 other isoform, or with tags, fused parts or gaps P301L P301L P301L P301L limits assumed): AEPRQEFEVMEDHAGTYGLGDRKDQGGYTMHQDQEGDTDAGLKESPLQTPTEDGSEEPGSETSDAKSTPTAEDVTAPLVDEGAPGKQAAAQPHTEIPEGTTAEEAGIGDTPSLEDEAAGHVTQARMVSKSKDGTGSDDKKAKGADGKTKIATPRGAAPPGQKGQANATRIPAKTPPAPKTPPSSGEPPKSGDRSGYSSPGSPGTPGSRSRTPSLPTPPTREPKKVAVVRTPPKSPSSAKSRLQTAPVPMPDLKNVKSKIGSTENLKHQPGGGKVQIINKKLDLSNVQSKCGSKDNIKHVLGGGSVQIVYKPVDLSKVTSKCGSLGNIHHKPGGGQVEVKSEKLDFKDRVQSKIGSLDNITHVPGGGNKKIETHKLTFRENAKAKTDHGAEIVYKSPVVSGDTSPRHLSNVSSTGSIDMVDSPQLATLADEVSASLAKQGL

[6] = target: T3, monomeric Tau isoform-2 expressed in E. coli (human, UniProt P10636 2-758); assay: SPR, Biacore T200, Tau amine-immobilised, mFab as analyte
T3 construct: also called Ecoli iso-2; E. coli Tau
T3 sequence (P10636 other isoform, or with tags, fused parts or gaps limits assumed): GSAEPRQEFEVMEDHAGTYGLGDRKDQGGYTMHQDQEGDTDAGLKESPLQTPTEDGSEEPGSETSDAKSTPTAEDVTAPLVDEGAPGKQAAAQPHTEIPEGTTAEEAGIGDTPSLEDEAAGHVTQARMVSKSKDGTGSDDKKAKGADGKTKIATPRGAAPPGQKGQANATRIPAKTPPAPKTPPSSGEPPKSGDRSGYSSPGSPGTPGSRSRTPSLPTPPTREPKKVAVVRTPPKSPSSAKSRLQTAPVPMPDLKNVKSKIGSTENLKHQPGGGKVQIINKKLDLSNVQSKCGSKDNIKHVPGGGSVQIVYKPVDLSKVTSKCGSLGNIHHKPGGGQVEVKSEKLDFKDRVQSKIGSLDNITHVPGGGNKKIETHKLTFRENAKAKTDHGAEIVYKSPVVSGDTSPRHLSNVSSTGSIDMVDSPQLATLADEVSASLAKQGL
Experimental: (§1) Absorption at 280 nm was used to determine the concentration of the Fab stock solutions for the BIAcore analysis. An insoluble Tau protein preparation from Alzheimer's disease patients (AD-PHF, fraction 11), the HEK-derived Tau isoform-2 monomers (amino acids 1-441), and the isoform-2 monomers expressed in E. coli were amine immobilized onto the CMS chip, and binding of anti-Tau mFabs was measured with the Biacore T200 instrument. The buffer HBS-EP from GE Healthcare was used for immobilizations apart from the AD-PHF for which 10 mM acetic acid (pH3.0) was used. The HBS-EP+buffer was supplemented with 300 mM NaCl and 1.25% CM-Dextran (Sigma) and used as the assay buffer. While flow cell (Fc) 1 was used as a reference, the following RU values were obtained for Fc2-4: 44 RU with 5 μg/ml E. coli Tau, 56 RU with 5 μg/m HEK Tau, and 500 RU with a 1:20 diluted solution of the AD-PHF material. Two 60 s cycles of 10 mM Glycine (pH1.7) were used for regeneration. Flow rates of 10 μl/min were used for immobilization and regeneration while a 30 μl/min flow rate was used for analyte binding. For AD-PHF, multiple manual injections were applied to reach 500 RU, including EDC/NHS and EtoA capping. Five start-up cycles and 12 cycles per mFab sample or buffer control were applied, using 90 μl analyte injections for either 180 s or 300 s for dissociation. 11 1:3 dilutions of a 600 nM solution plus buffer were used for each mFab. AB1 was analyzed using the BIAcore test.

[7] = target: T4, monomeric Tau isoform-2 derived from mammalian HEK293 cells (human, UniProt P10636 2-758); assay: as above
T4 construct: also called HEK iso-2; HEK Tau
Experimental: as §1

[8] = target: T1, Tau from human Alzheimer's disease …; assay: SPR, Biacore T200, AD-PHF fraction 11 amine-immobilised, mFab as analyte
Experimental: as §1

T1 sequence (P10636 other isoform, or with tags, fused parts or gaps limits assumed): as the sequence (P10636 other isoform, or with tags, fused parts or gaps P301L P301L P301L P301L limits assumed) above, with L300P counted along it

B1: Tau-binding antibody having the light chain of SEQ ID No.: 14 and the heavy chain of SEQ ID No.:17 (antibody, human IgG4 S228P, kappa, V domains shown)
VH: EVQLQESGPGLVKPSETLSLTCTVSGFSLTSNDIAWIRQPPGKGLEWMGTIWTDGSTNYNAAVQSRVTISVDTSKNQFSLKLSSVTAADTAVYYCARHRLYYGAFDYWGQGTMVTVSS
VL: DIVMTQTPLSLSVTPGQPASISCRSSQSLEYSDGYTYLEWYLQKPGQSPQLLIYEVSNRFSGVPDRFSGSGSGTDFTLKISRVEAEDVGVYYCFQATHNPYTFGQGTKLEIKR
IC50 (cellular Tau aggregation assay) [1]: 11 nM
Imax (maximal efficacy at 300 nM, cellular Tau aggregation assay) [1]: 98%

B3: Tau-binding antibody having the light chain of SEQ ID No.: 14 and the heavy chain of SEQ ID No.:18 (antibody, human IgG4 S228P, kappa, V domains shown)
VH: EVQLQESGPGLVKPSETLSLTCTVSGFSLTSNDIAWIRQPPGKGLEWMGTIWTDGSTNYNTAVQSRVTISVDTSKNQFSLKLSSVTAADTAVYYCARHRLYYGAFDYWGQGTMVTVSS
VL: DIVMTQTPLSLSVTPGQPASISCRSSQSLEYSDGYTYLEWYLQKPGQSPQLLIYEVSNRFSGVPDRFSGSGSGTDFTLKISRVEAEDVGVYYCFQATHNPYTFGQGTKLEIKR
IC50 (cellular Tau aggregation assay) [1]: 12 nM
Imax (maximal efficacy at 300 nM, cellular Tau aggregation assay) [1]: 98%
IC50 (cellular Tau aggregation assay) [3]: 42 nM
Imax (maximal efficacy at 300 nM, cellular Tau aggregation assay) [3]: 100%
IC50 (cellular Tau aggregation assay) [4]: 1 nM
Imax (maximal efficacy at 300 nM, cellular Tau aggregation assay) [4]: 99%

B4: AB1 having a rat VL of SEQ ID NO: 7 and a rat VH of SEQ ID NO.:8 (antibody, IgG1, V domains shown)
VH: EVKLEESGPGLMQPSETLSLTCTVSGFSLTSNDIAWVRQPLGKGLVWMGTIWTDGSTNYNSAVQSRLSISRDTSKSQFFLKMNSLQPEDTGTYYCARHRLYYGAFDYWGQGTMVTVS
VL: DIVMTQTPVSLSVTLGDQASISCRSSQSLEYSDGYTYLEWYLQKPGQSPQLLIYEVSNRFSGVPDRFIGSGSGTDFTLKISRVEPEDLGVYYCFQATHNPYTFGAGTKLEIK
IC50 (cellular Tau aggregation assay) [1]: 4 nM
Imax (maximal efficacy at 300 nM, cellular Tau aggregation assay) [1]: 98%
IC50 (cellular Tau aggregation assay) [4]: 3 nM
Imax (maximal efficacy at 300 nM, cellular Tau aggregation assay) [4]: 97%
IC50 (cellular Tau aggregation assay) [5]: 30 nM
Imax (maximal efficacy at 300 nM, cellular Tau aggregation assay) [5]: 89%

Continued, values first:

binding result [2]: binds
B2: L14H18 Fab (Fab, V domains shown)
VH: EVQLQESGPGLVKPSETLSLTCTVSGFSLTSNDIAWIRQPPGKGLEWMGTIWTDGSTNYNTAVQSRVTISVDTSKNQFSLKLSSVTAADTAVYYCARHRLYYGAFDYWGQGTMVTVSS
VL: DIVMTQTPLSLSVTPGQPASISCRSSQSLEYSDGYTYLEWYLQKPGQSPQLLIYEVSNRFSGVPDRFSGSGSGTDFTLKISRVEAEDVGVYYCFQATHNPYTFGQGTKLEIKR
notes: also called L14H18 Fab fragment; L14H18 Fab protein

Kd [6]: 160 nM
koff [6]: 0.011 s⁻¹
kon [6]: 69000 M⁻¹ s⁻¹ and 73000 M⁻¹ s⁻¹
Kd [7]: 160 nM and 170 nM
koff [7]: 0.011 s⁻¹
kon [7]: 70000 M⁻¹ s⁻¹ and 66000 M⁻¹ s⁻¹
Kd [8]: 190 nM and 180 nM
koff [8]: 0.0096 s⁻¹ and 0.008 s⁻¹
kon [8]: 52000 M⁻¹ s⁻¹ and 44000 M⁻¹ s⁻¹
B5: mFab AB1 having a rat VL of SEQ ID No.: 7 and a rat VH of SEQ ID No.: 8 (Fab, V domains shown)
VH: EVKLEESGPGLMQPSETLSLTCTVSGFSLTSNDIAWVRQPLGKGLVWMGTIWTDGSTNYNSAVQSRLSISRDTSKSQFFLKMNSLQPEDTGTYYCARHRLYYGAFDYWGQGTMVTVS
VL: DIVMTQTPVSLSVTLGDQASISCRSSQSLEYSDGYTYLEWYLQKPGQSPQLLIYEVSNRFSGVPDRFIGSGSGTDFTLKISRVEPEDLGVYYCFQATHNPYTFGAGTKLEIK
notes: also called AB1 Fab; anti-Tau mFab
